From the supplement of paper PMC12042874 come the findings set out here.

± gives the uncertainty stated by the source.

The nature of the data set: amyloid nucleation score (Sup35N fusion, yeast selection) (log enrichment); library NNK1; higher = more nucleation; inactive = no reads after selection. The essentials:
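The nucleation score, computed with DiMSum, is the log enrichment of output over input reads, centred on the mode score of non-aggregating sequences. Sequences with under 100 input reads were dropped. Reads were generated by Illumina sequencing of plasmid inserts from psi-negative yeast with Sup35N fused to peptides of 20 random codons, induced with 100 μM copper sulfate for 24 hours and grown 7 days at 30°C on medium lacking adenine and uracil.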
TTLVKPDEIVFVSINECWCW registered an amyloid nucleation score of 0.021 ± 0.59.
In the case of TTPFLHKENLNSIMK, the amyloid nucleation score was 0.396 ± 0.26.
With TTQDCNLRD, the amyloid nucleation score is -0.021 ± 0.34.
Then TTSCNGLFERAKNSTNSPDI, with -2.25 ± 2.4; and TTSFRHSVYQDYGLSVIDCG, with -0.351 ± 0.78; and TTSPGSNSRDPAGMMIT, with 0.38 ± 0.32.
As to TTTKLGPMLLGRNSVYCV, the amyloid nucleation score is 2.31 ± 0.25.
Then TTTRVFS, with 0.813 ± 0.81; and TVAFWF, with “inactive”; and TVANT, with 0.888 ± 1.1.
Then TVFRTSFLWHGMGRGLVR, with 1.03 ± 0.59.
Substance TVGSLRAW returned an amyloid nucleation score of 1.15 ± 0.62.
Then TVLKVSTEYFFLMKESGVVC, with 0.593 ± 0.26; and TVNCFDYSVSGVSSNRV, with 0.882 ± 0.66; and TVRKDGNTRSFFSSLRMQAS, with -0.654 ± 0.3.
Then TVRVVDLGQVVGSGVMASMP, with 1.23 ± 0.17; and TVSKNMYR, with -0.259 ± 0.5; and TVTAVY, with “inactive”.
The substance TVVWFTLIFLSLESSCINSL yielded an amyloid nucleation score of 1.22 ± 0.2.
The substance TVYLSNCERIYMQWVREFVS yielded an amyloid nucleation score of 2.68 ± 0.14.
Turning to TVYSMPKVTKTYGGFPAKSH, the amyloid nucleation score was 0.312 ± 0.34.
With TWDSPVPG, the amyloid nucleation score was 0.208 ± 0.29.
Take TWKLATCIWRSLF: the amyloid nucleation score was -0.238 ± 0.21.
The substance TWLTRYLPLNEFRMG showed an amyloid nucleation score of 0.776 ± 0.36.
Then TWSSKIEDSSAYYDG, with 1.65 ± 0.36; and TWSTGAMPML, with -0.344 ± 0.84; and TWYILMTRGILGTAATHIRL, with -0.234 ± 0.91.
The value for TYDLPTYIILVSPQYLCANT was -0.06 ± 0.27.
As for TYGGYR, the amyloid nucleation score was -0.343 ± 0.93.
Then TYLAVGLMHYEWRGDSVSTD, with -0.603 ± 0.32.
The value for TYLRKIKKRFPGSRYPSLMG was 0.15 ± 0.46.
The value for TYLRMCGSSTR was -0.14 ± 0.3; that for TYLVILR was 0.33 ± 0.39; that for TYLYNYILASSLSHRALYNA was 1.62 ± 0.73.
TYNVLSTLWRFCVIVLRICC yielded an amyloid nucleation score of 0.558 ± 1.1.
The value for TYRCGHLLGFVY was “inactive”; that for TYRTLAARRWQLAYALWVLL was -0.474 ± 0.6; that for TYWFMSRC was 0.254 ± 0.88.
Then TYWYSVRNVAQLCPVEGYQS, with -0.102 ± 0.7; and TYYSGDSAYLPIDAIMLVWY, with -1.07 ± 0.65; and TYYTVTEISHVGWTYFGYVR, with -0.151 ± 0.64.
Then VAAACFFNRCWEHTYVMIVK, with 3.1 ± 0.17; and VAEVKRFCELLLK, with -0.29 ± 1.7; and VAGGDHAAHWKLAVKNPPPS, with 0.1 ± 0.56.
Substance VAISDDDVLVWMYFS showed an amyloid nucleation score of 0.154 ± 0.44.
In the case of VALID, the amyloid nucleation score was -0.215 ± 1.7.
In turn, VAPQGNPMWSKDLL showed an amyloid nucleation score of 1.8 ± 0.18.
Then VARSHYMCI, with 0.132 ± 0.38.
The substance VASRFVCWCRGQAQWVSQCN registered an amyloid nucleation score of 0.434 ± 0.45.
Then VAVLGNFL, with “inactive”.
As for VCFWSGEGNLGAWDGHELSM, the amyloid nucleation score is 0.693 ± 0.46.
In the case of VCIFCFRGGMVKRPTLDMVY, the amyloid nucleation score is 0.564 ± 0.19.
Then VCKWSVMNHFVVITYHYVMA, with 0.671 ± 0.3.
Consider VCLSSLIRMCKYSFPDGTGH, for which the amyloid nucleation score came out at 6.813 ± 0.051.
Then VCMISAQYYLDIMMGRCNVI, with 0.468 ± 0.36; and VCMWRFLVGRT, with -0.238 ± 0.9.
Substance VCPVHSNKGLQFLSMRHYSS came in with an amyloid nucleation score of 0.511 ± 0.87.
Then VCRKRCERQLKPL, with 0.241 ± 0.24.
VCTYGFGC: the amyloid nucleation score entry is “inactive”.
In the case of VCVLSGRK, the amyloid nucleation score was -0.416 ± 0.38.
Then VCVNSENHNFT, with “inactive”.
Then VCVSIGWFCCSGCCLAQRLW, with 7.2 ± 0.065; and VDFLSTNFWSLSVPVAFLGV, with -0.31 ± 0.54; and VDHTSMWCGFLYTSCLGPDF, with -0.758 ± 1.2.
As for VDLGRSKWCLTMYESYENGR, the amyloid nucleation score was -0.127 ± 0.3.
Then VDPGDVVFLLRPRSEHWGVG, with 2.12 ± 0.18; and VDSDLGLSERMTVKSTFAFC, with 0.39 ± 0.56.
Then VDSHVYRNT, with -0.203 ± 1.1; and VDVSNLKCLQE, with 0.335 ± 0.42.
For VDYFFMGAGFEL, the amyloid nucleation score came out at 4.53 ± 0.077.
The value for VECAYSVTFSKMNRNTDFRV was 0.265 ± 0.35; that for VEGRRFDINAWRDWTKGVR was -0.238 ± 0.3.
Then VEIYGCTSPDQWSVANSCTA, with 0.047 ± 0.36; and VESTCTNMRCYLGWFIPPF, with 0.387 ± 0.2; and VEVYFSFLNLIFSGMSVLVE, with 0.129 ± 0.28.
VFASVRLSCMEGGTLVG showed an amyloid nucleation score of 0.241 ± 0.33.
Take VFCVRYLRANISCEGHDGWY: the amyloid nucleation score stood at 2.28 ± 0.14.
With VFGIRFLI, the amyloid nucleation score is -1.54 ± 2.7.
Consider VFGKITSWWFRTIDFWERRI, for which the amyloid nucleation score is -0.428 ± 0.64.
Then VFILALVELFGVQWLVVYNW, with -0.42 ± 0.47; and VFKCVNFS, with “inactive”.
Substance VFKFKTM yielded an amyloid nucleation score of 1.24 ± 0.81.
The value for VFLIEQPMERCK was 0.199 ± 0.22.
The substance VFLKCFRYTFNNHINFFCVG yielded an amyloid nucleation score of 5.96 ± 0.064.
Take VFLKHAPRGI: the amyloid nucleation score was -0.077 ± 1.7.
Then VFLSCHQSLRVFVACYWHWY, with 0.672 ± 0.33; and VFLVIVRYWCFFYHPVDTAN, with “inactive”; and VFMSIRMWAFDLLYVSCGLA, with -0.808 ± 0.42.
Then VFNARVSYSFNSMCWVRKKQ, with -2.08 ± 2.7; and VFNMTYRKIRVTE, with “inactive”; and VFNRFCYSSFCLTYRDYDSQ, with 8.198 ± 0.07.
The value for VFNTSRLFRSLYPK was 0.573 ± 0.82; that for VFPDASSMRVRGGIDTAQEL was 0.037 ± 0.46; that for VFPFPLGFDFKNHERKSVV was -1.24 ± 0.58.
In the case of VFQLIVTTFLSCVGFHKVMW, the amyloid nucleation score is -0.658 ± 0.6.
The value for VFTGLLLL was -0.034 ± 0.36; that for VFVSIMWQY was 1.82 ± 0.51.
Then VFVSKNWGTCRHGRDSCC, with 0.507 ± 0.26; and VFVSWHKVCTNQRSLRQVHL, with 1.56 ± 0.48; and VFWTYVGERKKSLVCRNLGA, with -0.189 ± 0.71.
In the case of VFYACSTPRPSQNASVDFRL, the amyloid nucleation score is -0.035 ± 0.61.
The value for VGDCSSVFCVTSFDWVSFYV was 2.89 ± 0.098; that for VGDKQFHTKYMVA was 0.031 ± 1.1; that for VGDWFSLVENWVVWSFSLIC was -1.89 ± 2.1.
The value for VGDYFFGDDSIGGSRMHVSY was 1.15 ± 0.65; that for VGESHCLNADLVSYQHN was -0.374 ± 0.6.
In turn, VGIPGGWIQNITFSSMKDFF yielded an amyloid nucleation score of 4.9 ± 0.065.
For the substance VGLMAVLRVGRKGLPLKNME, the amyloid nucleation score is -0.082 ± 0.31.
VGNRSFNIFGTMCKMLQWTE: the amyloid nucleation score is -0.715 ± 1.1.
Then VGNVRPVFDTALTTWRRCCF, with 0.223 ± 0.49; and VGRLGKFRGFSIGNYECSI, with 0.726 ± 0.55; and VGSGSDQQYALMSNLYSKLS, with 1.02 ± 0.7.
Substance VGSTKSDVTDFLDCMNGLEW showed an amyloid nucleation score of 0.462 ± 0.63.
As for VGVVCLKFLP, the amyloid nucleation score is -0.064 ± 0.43.
VHSCIYVSKTSLELARYQML: the amyloid nucleation score result was “inactive”.
Regarding VHSWQVVRYFRFLVLYSWDR, the amyloid nucleation score came out at 0.539 ± 0.42.
Then VIDAIQPRKYGFV, with -0.462 ± 0.58; and VIGDLSYRSYI, with 0.44 ± 0.4.
The substance VIGSMVGLI showed an amyloid nucleation score of 0.668 ± 0.31.
Regarding VIHLSVSWLGMLSGWANLFV, the amyloid nucleation score was -0.529 ± 0.94.
Then VIIAEVDVVA, with -0.186 ± 0.57; and VIIKTRLELYKWRTMISSND, with -0.454 ± 0.63; and VIILNVVFNLLYEKAFFFR, with 0.278 ± 0.68.
Then VILSARSFMTIHGHYCTYRV, with 0.474 ± 0.88; and VILSCSLLFCFNRSWGLGNE, with 7.04 ± 0.067.
The value for VIMCNI was 0.068 ± 0.93; that for VINWLCWVYLECLWYYWMVG was “inactive”; that for VIQRYRSVPI was 0.604 ± 0.67.
Consider VISRSVDYTPM, for which the amyloid nucleation score is -0.599 ± 0.46.
Consider VITNVRL, for which the amyloid nucleation score is -0.089 ± 0.35.
In the case of VIVSSWLLTCTYSRYMRY, the amyloid nucleation score is -1.5 ± 2.7.
For the substance VKIKEKFKA, the amyloid nucleation score is -0.189 ± 0.42.
VKKRGDQLSLCWCLPRDLLL: the amyloid nucleation score was found to be 0.612 ± 0.59.
For the substance VKLSMLWLMARLWGRLTCSG, the amyloid nucleation score is -0.293 ± 0.47.
Then VKLSYGWVLSGAELTEYVTM, with -0.782 ± 0.54; and VKNRNKGTYRCWVVYITGKS, with -0.205 ± 0.28.
The value for VKRKGAKISWQGAILRASVV was -0.963 ± 0.7; that for VKSWKLERRMRVAMLDTLVI was 0.367 ± 1.2.
The value for VKSWVPTDVGFEQQSGREVL was 0.093 ± 0.25; that for VLAPF was “inactive”; that for VLAPFVLPC was -0.406 ± 0.41.
